From PMC3337949 come the findings set out here.

Experiment [1] concerns the target substrate-trapping Csw, Csw^C583S (Csw^CS) (Drosophila). The experiment in a line: co-IP.
Experiment [2] concerns the target wild type Corkscrew (Csw^WT) (Drosophila). The experiment in a line: co-IP.

Consider HA-tagged Draper-II (receptor), for which, in experiment [1], the fold change of the co-immunoprecipitated amount against Csw^WT was found to be 1.7 fold. The fold change of the co-immunoprecipitated amount against Draper-I in experiment [2] turned out to be 24 fold.
